This assay deals with IgG (immobilised on resin in a column). Briefly: IgG-functionalised resin column, about 15 min reaction, buffer wash; effluent monitored for nanoparticle luminescence.

As to “protein G-zipper fusion protein (IgG binding b2 sub-domain of streptococcal protein G, linker, basic leucine zipper tail, hexahistidine), electrostatically attached to CdSe-ZnS dihydrolipoic acid nanoparticles (from UniProt P19909 373-427)”, the percent of ionic bioconjugates retained by the column is 95 to 98%.

The values are drawn from US6921496.
